Assay results from patent US20150266963A1 (ARGEN X B V, published 2015).

Tests used:
[1] = biological target: cynomolgus monkey Flag-TNC-CD70 (cynomolgus monkey); test: blocking ELISA; cynomolgus Flag-TNC-CD70; competitor CD27-Fc
Protocol: (§1) In this assay, a microtiter plate (Nunc Maxisorb) was first coated with 100 μl anti-FLAG M2 monoclonal antibody (Sigma Aldrich, F3165) at 1250-fold dilution in PBS (to achieve a final concentration of approximately 3.5 μg/ml) overnight at 4° C. The plate was washed once with PBS-Tween and incubated at RT for 2 hours with 300 μl PBS-1% casein. The plate was washed a further three times with PBS-Tween. 100 μl of 5 ng/ml (80 pM) Flag-TNC-CD70 (The Journal of Immunology, 2009, 183: 1851-1861) diluted in PBS-0.1% casein was added to the plate and incubated at RT for 1 hour while shaking. The plate was washed five times with PBS-Tween. The CD70 mAb to be tested was added to the plate; various concentrations were achieved by diluting the stock antibody solution in PBS-0.1% casein. Immediately thereafter, 50 μl of 1 μg/ml (final concentration 6.5 nM) recombinant human CD27 Fc chimera (R&D systems 382-CD, MW=46.5 kDa) was added, and incubated at RT for 1 hour while shaking. The plate was washed five times with PBS Tween. 100 μl of biotinylated anti-CD27 (eBioscience 13-0271), diluted 500-fold in PBS-0.1% casein, was added, and the plate incubated at RT for a further hour, while shaking. The plate was washed five times with PBS Tween. […] 100 μl TMB was added to the plate and the OD at 620 nm was measured. […]

[2] = biological target: T1, human CD70 expressed on the surface of cells (human, UniProt P32970 1-193); test: flow cytometry on U266 cells, 1 h at 4 °C, anti-hIgG1-Fc-FITC or anti-hIgG-Fc-PE [panel U266]
T1 construct: whole, on cells; also called cell surface expressed CD70; CD70 on cells
T1 sequence (looked up): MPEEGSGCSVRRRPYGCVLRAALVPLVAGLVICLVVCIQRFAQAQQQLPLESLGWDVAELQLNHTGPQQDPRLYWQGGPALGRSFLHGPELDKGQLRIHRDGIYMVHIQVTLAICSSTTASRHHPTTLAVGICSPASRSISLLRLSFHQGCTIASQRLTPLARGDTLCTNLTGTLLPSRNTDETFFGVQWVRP
Protocol: […] This was either done at 4° C. (1 hour incubation of cells with mAbs) or at 37° C. (15 minutes incubation of cells with mAbs). Binding was detected using anti-hIgG1-Fc-FITC (AF006, Binding Site) or anti-hIgG1-Fc-PE antibody (eBioscience, 12-4998). Fluorescence was measured using a flow cytometer.

[3] = biological target: T2, recombinant human CD70 (Flag-TNC-CD70) (human, UniProt P32970 39-193); test: blocking ELISA; human Flag-TNC-CD70; competitor CD27-Fc
T2 construct: extracellular domain; Captured by anti-Flag mAb in ELISA; as 'recombinant human CD70' immobilised on Biacore CM5 chips; TNC is for trimerisation; also called recombinant CD70; human recombinant CD70; not shown: Flag tag and TNC trimerisation domain
T2 sequence (looked up): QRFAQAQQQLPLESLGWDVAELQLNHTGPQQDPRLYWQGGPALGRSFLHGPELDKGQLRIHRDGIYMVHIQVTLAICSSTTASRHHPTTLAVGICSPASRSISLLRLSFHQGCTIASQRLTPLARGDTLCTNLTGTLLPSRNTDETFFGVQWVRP
Protocol: as §1

[4] = biological target: T1, human CD70 expressed on the surface of …; test: FACS MFI at 37 C, U266 cells; reference SGN70
Protocol: (§2) Several cancer cell lines were tested by FACS analysis for binding of ARGX-110 and SGN70 (described in US2010/0129362) at saturating mAb concentrations (at least 2 μg/ml). This was either done at 4° C. (1 hour incubation of cells with mAbs) or at 37° C. (15 minutes incubation of cells with mAbs). Binding was detected using anti-hIgG1-Fc-FITC (AF006, Binding Site) or anti-hIgG1-Fc-PE antibody (eBioscience, 12-4998). Fluorescence was measured using a flow cytometer.

[5] = biological target: T1, human CD70 expressed on the surface of …; test: flow cytometry on U266 cells, goat anti human IgG1 FITC [panel U266]
[6] = biological target: T1, human CD70 expressed on the surface of …; test: FACS MFI at 37 C, L428 cells; reference SGN70
Protocol: as §2

[7] = biological target: T1, human CD70 expressed on the surface of …; test: FACS MFI at 37 C, MKN-45 cells; reference SGN70
Protocol: as §2

[8] = biological target: T2, recombinant human CD70 (Flag-TNC-CD70); test: blocking ELISA; Flag-TNC-CD70 captured by anti-FLAG M2; competitor CD27-Fc 6.5 nM
Protocol: as §1

[9] = biological target: T1, human CD70 expressed on the surface of …; test: FACS MFI at 37 C, A549 cells; reference SGN70
Protocol: as §2

[10] = biological target: T1, human CD70 expressed on the surface of …; test: FACS MFI at 37 C, U87MG cells; reference SGN70
Protocol: as §2

IC50 [1]: 0.048 µg/mL
EC50 (read off the curve) [2]: ~100 ng/mL
IC50 [3]: 0.039 µg/mL
Signal in FACS of ARGX-110/signal in FACS of SGN70 [4]: 0.8 ratio
EC50 (read off the curve) [5]: ~100 ng/mL
Signal in FACS of ARGX-110/signal in FACS of SGN70 [6]: 1.4 ratio
Signal in FACS of ARGX-110/signal in FACS of SGN70 [7]: 10.6 ratio
IC50 [8]: 0.067 µg/mL
Signal in FACS of ARGX-110/signal in FACS of SGN70 [9]: 3.8 ratio
Signal in FACS of ARGX-110/signal in FACS of SGN70 [10]: 2 ratio
B1: ARGX-110 (non-fucosylated 41D12 human IgG1) (antibody, V domains shown)
VH: EVQLVESGGGLVQPGGSLRLSCAASGFTFSVYYMNWVRQAPGKGLEWVSDINNEGGTTYYADSVKGRFTISRDNSKNSLYLQMNSLRAEDTAVYYCARDAGYSNHVPIFDSWGQGTLVTVSS
VL: QAVVTQEPSLTVSPGGTVTLTCGLKSGSVTSDNFPTWYQQTPGQAPRLLIYNTNTRHSGVPDRFSGSILGNKAALTITGAQADDEAEYFCALFISNPSVEFGGGTQLTVLG
notes: also called 41D12 (ARGX-110)
